According to IntAct's records for PubMed 25775511:

B1: Transducer of Cdc42-dependent actin assembly protein 2 homolog (Caenorhabditis elegans), Q9XUS7 (parent)
chain: MIPVSRFFTVQDPSNALLSYTQKGIDFFEKLGQFSKEKAAIEEEYSTKLRSLAKKYAKKSEEDDEILKSVSYTSSFNSFLQQLDQIATRHQTSAEHIRGGVVSYVASKTCQMRSSRKNAINDLKTINDKLEDQINEMCKSGKCYLKSFKDAENSYQKFYKADKNLEISRLELEKARALANARNEACELAKQDYSALVRKTNAEQKRYHVELLPVIFARLKAVDKECIADMRQVLQKIVSFDDSLADSTEECRKIMQREVGKIDAEGDAQLVLKSVEATIEQPAPFEIEDLGDPKNCDSRTNDSADGSGGKLLKSSPSKNRIIRNFLGILKEKEADEKPEASNNDQLMYTDKSKPAHVRLSCLRSKIRDMEKQLEQAIQGREGITRLQQAYYTNPQHGNPSACTEPLISYAKKIEKLKMDIHNLKEFYAMLEMSVEEGQERSFGGRDTPDTTRSMSGSSTNQSSSKTIEDVLSGEAGNSSSADDSSKNILRQLFTTPKRLISSPKTSKSSTPTPLRRRAEISSPKILRSSFSGAIRKSLSTPDSVKVETAVTVTALFEFAKSSAETMSIEQGEILLVLEHDHGDGWTRTKNCRKHNEESGFVPTSYLQFPQ

Variants of: B1
Settings: with cdc42_caeel cdc-42, Q05062
Chain of cdc42_caeel cdc-42, Q05062 (Q05062 whole entry): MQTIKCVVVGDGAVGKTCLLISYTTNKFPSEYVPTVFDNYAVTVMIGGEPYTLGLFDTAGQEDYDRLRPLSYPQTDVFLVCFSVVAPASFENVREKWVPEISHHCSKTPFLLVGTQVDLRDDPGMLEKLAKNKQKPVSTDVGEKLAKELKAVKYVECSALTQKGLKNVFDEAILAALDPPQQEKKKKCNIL

| effect of a mutation on the interaction | Variant |
| --- | --- |
| disrupting interaction strength | I413S |
